In publication PMC6391002, “Myc-induced nuclear antigen constrains a latent intestinal epithelial cell-intrinsic anthelmintic pathway” (PLoS ONE, 2019):

Experiments:
L3 TM larvae = assay type: cell-based, Trichuris muris
Method: Synthetic reduced (r-)Defa1, r-Defa2, r-Defa4, r-Defa5 and r-Defa6, r-Defa20, r-Defa21, r-Defa23 and r-Defa24 were purchased from Medical and Biological Laboratories Co., Ltd. (Nagoya, japan) and stored at -30°C until use. Three pairs of disulfide bonds were introduced into synthetic Defa1 and Defa4 (Medical and Biological Laboratories Co., Ltd., Nagoya, japan) by air oxidation as described previously. Using reverse-phase high-performance liquid chromatography (RP-HPLC) reaction mixtures were applied to C-18 columns (SepaxHP-C18, 4.6 x 150mm, […]; Sepax Technologies, Newark, DE, USA) in 0.1% trifluoroacetic acid with an 18–36% acetonitrile gradient developed over 30min at 1ml/min. […] Disulfide bond status of Defas was evaluated by acid-urea PAGE and MALDI-TOF MS (Voyager-DE PRO; Applied Biosystems, Carlsbad, Calif., USA) as described previously. […]
Supplementary file pone.0211244.s012.pdf: S12 Fig Cytotoxic activity of α-defensins toward L3 TM larvae. Cytotoxic activity of reduced (r-) α-defensins 5, 20, 21, 23 and 24 against L3 TM larvae was measured by lactate dehydrogenase release assay. […]
Cytotoxic activity of reduced (r-) α-defensins 1, 2, 4, 5 and 6 against L3 TM larvae was measured by lactate dehydrogenase release assay. […]
Cytotoxic activity of reduced (r-) and oxidized (o-) α-defensins 1 and 4 against L3 TM larvae was measured by lactate dehydrogenase release assay. […]

[1] = system: LPS; macrophage production of TNF; details: reduced peptide; ref [27]; cited from earlier work
From the text: Given the prominence of α-defensin and α-defensin-related genes in the Mina genetic perturbation signature we considered whether they might contribute to the IEC-intrinsic roles of Mina in response to TM infection. Upregulation of α-defensins in Mina^ΔIEC mice could promote accelerated TM expulsion via multiple non-mutually exclusive mechanisms. First, it is well established that α-defensins can shape commensal microbiota diversity. Thus, α-defensins may act indirectly by altering commensal microbiota diversity, thereby eliminating niches essential for, or creating ones hostile toward, ...

## Defa1: Synthetic reduced mouse α-defensin 1 peptide purchased from Medical and Biological Laboratories (LRDLVCYCRSRGCKGRERMNGTCRKGHLLYTLCCR; Alpha-defensin 1 reduced; UniProt P11477 59-93, looked up)
L3 TM larvae
  cytotoxicity against L3 TM larvae after oxidation of the peptide (oxidized, o-, form with three disulfide bonds), S14 Fig: abolished by oxidation

B1: HD5: Reduced human enteric defensin 5, literature result (peptide, UniProt Q01523 20-94, looked up)
Defensin alpha 5: ESLQERADEATTQKQSGEDNQDLAISFAGNGLSALRTSGSQARATCYCRTGRCATRESLSGVCEISGRLYRLCCR
modifications: Defensin-5 reduced form
notes: Reduced human enteric defensin 5, literature result
[1]
  LPS neutralization: can neutralize LPS
  macrophage production of TNF: suppress
